The source of these data is publication PMC7327498, “Structural basis of semaphorin‐plexin cis interaction” (The EMBO Journal, 2020).

Residue numbers refer to the chain shown, from its start.

For assay [1], the target named is PlexA_(ecto) (Drosophila melanogaster) (UniProt Q9V491). Put plainly: AUC; sedimentation velocity, 15 mM HEPES pH 7.4, 150 mM NaCl, 40,000 rpm; PlexA1‐4 at 33 μM, PlexA_(ecto) at 2.2 μM.
Assay [2] addresses T1, PlexA1‐4‐mVenus (Drosophila melanogaster, UniProt Q9V491 28-730).
T1 construct: Plexin A (PlexA), Drosophila melanogaster, domains 1-4, residues 28–730; monoVenus follows PlexA1-4 and is followed by the His6 tag; source: HEK 293T, transient transfection, purified (HisTrap, SEC); not shown: mVenus, C-terminal, kept
T1 sequence (looked up): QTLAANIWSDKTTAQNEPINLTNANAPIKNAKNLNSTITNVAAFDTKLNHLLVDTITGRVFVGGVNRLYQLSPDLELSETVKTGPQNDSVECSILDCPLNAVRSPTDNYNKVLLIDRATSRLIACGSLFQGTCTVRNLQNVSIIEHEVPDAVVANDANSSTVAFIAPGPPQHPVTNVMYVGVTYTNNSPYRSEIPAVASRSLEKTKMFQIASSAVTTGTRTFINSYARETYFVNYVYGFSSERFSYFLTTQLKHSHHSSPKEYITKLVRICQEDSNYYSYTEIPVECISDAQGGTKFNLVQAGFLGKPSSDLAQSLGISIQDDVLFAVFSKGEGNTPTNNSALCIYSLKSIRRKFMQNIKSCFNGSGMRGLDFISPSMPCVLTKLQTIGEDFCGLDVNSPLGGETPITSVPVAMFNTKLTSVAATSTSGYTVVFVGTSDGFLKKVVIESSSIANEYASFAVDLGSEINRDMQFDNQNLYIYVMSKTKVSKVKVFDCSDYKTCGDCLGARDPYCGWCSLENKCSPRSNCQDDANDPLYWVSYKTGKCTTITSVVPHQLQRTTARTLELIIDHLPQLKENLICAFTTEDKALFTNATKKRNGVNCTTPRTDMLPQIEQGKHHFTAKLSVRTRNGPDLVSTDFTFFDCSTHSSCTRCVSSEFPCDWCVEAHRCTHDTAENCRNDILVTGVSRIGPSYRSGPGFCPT
Put plainly: MST; fluorescent PlexA1‐4‐mVenus kept constant, unlabelled Sema1b_(ecto) or mutants titrated; 28°C, 15 mM HEPES pH 7.4, 150 mM NaCl, 2 mM CaCl2, 0.05% Tween‐20; 80% MST power. The note with it: both partners purified.

In assay [3] the target is T2, PlexA1‐4‐mVenus (Drosophila melanogaster, UniProt Q9V491 28-730).
T2 chain: T1 sequence (looked up)
Put plainly: MST.

Assay [4] addresses T3, PlexA‐mClover (Drosophila melanogaster, UniProt Q9V491 28-1311).
T3 construct: Plexin A (PlexA), Drosophila melanogaster, residues 28–1,311: ectodomain followed by a transmembrane segment; not the purified PlexA‐mClover (residues 67–1,274) used as donor-only control in solution; also called FRET donor PlexA‐mClover; source: COS-7, transiently transfected, on live cells; not shown: mClover, C-terminal, kept
T3 sequence (looked up): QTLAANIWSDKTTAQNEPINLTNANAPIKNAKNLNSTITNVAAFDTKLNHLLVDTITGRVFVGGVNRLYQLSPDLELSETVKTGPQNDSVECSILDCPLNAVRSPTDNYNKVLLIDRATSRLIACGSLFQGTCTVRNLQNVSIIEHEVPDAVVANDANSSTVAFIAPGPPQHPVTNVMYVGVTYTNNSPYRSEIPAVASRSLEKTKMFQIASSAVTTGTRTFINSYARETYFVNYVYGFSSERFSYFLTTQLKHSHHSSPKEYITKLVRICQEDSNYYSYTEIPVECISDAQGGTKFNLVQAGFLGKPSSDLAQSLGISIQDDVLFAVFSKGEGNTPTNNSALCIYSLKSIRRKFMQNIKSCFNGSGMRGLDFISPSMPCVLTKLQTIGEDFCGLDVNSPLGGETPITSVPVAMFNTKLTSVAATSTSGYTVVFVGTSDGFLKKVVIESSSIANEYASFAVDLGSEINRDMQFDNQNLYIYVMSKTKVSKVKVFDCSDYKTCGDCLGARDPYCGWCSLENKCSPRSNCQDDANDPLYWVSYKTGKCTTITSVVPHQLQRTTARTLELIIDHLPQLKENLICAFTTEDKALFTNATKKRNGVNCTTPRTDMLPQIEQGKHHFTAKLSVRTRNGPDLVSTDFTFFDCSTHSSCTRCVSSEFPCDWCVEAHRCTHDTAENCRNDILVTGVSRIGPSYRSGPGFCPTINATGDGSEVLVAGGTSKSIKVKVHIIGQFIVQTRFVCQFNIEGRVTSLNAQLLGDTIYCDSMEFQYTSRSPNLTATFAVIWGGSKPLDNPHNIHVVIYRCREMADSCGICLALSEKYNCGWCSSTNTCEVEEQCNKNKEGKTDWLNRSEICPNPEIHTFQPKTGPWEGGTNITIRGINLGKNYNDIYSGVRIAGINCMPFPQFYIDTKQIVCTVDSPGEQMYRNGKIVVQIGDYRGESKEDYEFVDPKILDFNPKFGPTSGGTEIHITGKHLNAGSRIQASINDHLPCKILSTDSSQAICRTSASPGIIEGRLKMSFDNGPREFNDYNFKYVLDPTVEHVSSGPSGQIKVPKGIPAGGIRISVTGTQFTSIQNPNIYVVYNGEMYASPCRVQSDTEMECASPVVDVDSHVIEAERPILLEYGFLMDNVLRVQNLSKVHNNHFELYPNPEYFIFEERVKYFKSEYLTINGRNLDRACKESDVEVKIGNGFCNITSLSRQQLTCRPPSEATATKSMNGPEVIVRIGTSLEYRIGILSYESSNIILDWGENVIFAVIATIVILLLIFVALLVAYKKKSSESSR
Put plainly: FRET or BRET; FRET-FLIM in live COS-7 cells transiently co-transfected with PlexA‐mClover (donor) and semaphorin‐mRuby2 (acceptor), cis on one cell surface, 37°C; donor alone τav 2.72 ± 0.03 ns. The following applies: partners not purified.

In assay [1], “PlexA_(ecto) (from UniProt Q9V491 28-1272) (domain or fragment)” gave a stoichiometry N of under 4.

B1: Sema1b_(ecto) (domain or fragment, Drosophila melanogaster, UniProt Q7KK54 37-659, looked up)
chain: DVKPDLQTKQDKVLAHFIGNSTDYFKILDHNDEFVLVGAKDVIYNVSLNGLKEIARLEWHSTDADRELCALKGKHEWDCHNYLRVYALRPNGEVLLCGTNSYKPRCRHYTPVEVSSEEAGSAGHAHAMRYEVSRDVEAQGLCPYSPAHNSTYAFADGHLYSATVADFSGGDPLIYRENLRTEQYDLKQLNQPDFVGAIERNGYVLFFFRELSMEVMNFGKAVYSRVARVCKNDRGGPYSHGKSWTSFLKARLNCSVPGEFPFYFDEIQAISPIVESGSKSLIYAVFTTSVNAIPGSAVCAFNVDDILAAFDGEFKSQKDSQSHWLPVEREQVPKPRPGQCVEDSRTLTSIAVNFIKNHPLMEEAVPAVHGRPLLTKVNLHHRLTAIAVHPQVKSLSGAYYDVIYSGTDDGKVTKFINILSTHPNSTVDRLKTVVISEMQVLPLGTPIRELVISTSKNSLVVVSDGSLVSVPLHHCSHIVDCLGCLSLQDPICAWDLQTHECKNLATSQHKFGTKTYLQSLNSTKKAAALLCPHIPRDAPGAETVSFVTMAPPPTEEQKLLYSNVGSSQGNQPSLEQQPTGGDDFGLNKITLTSMDPDDIMPNLNDPQKSTASVDEIKYASTPS
notes: Semaphorin 1b (Sema1b), Drosophila melanogaster, ectodomain, residues 37–659; pHLsec vector; monomer in solution according to the authors' earlier work; also called Sema1b ectodomain; wild-type Sema1b_(ecto); source: HEK 293T, transient transfection, purified from conditioned medium (HisTrap, SEC)
As to B1, the binding result in assay [2] is recorded as “binds”. The Kd in assay [3] worked out at 586 nM.

B2: Sema1b_(ecto)‐mutA (domain or fragment, Drosophila melanogaster, UniProt Q7KK54 37-659, looked up)
chain: B1 chain with F167E, Q183R, K187E
notes: Semaphorin 1b (Sema1b), Drosophila melanogaster, ectodomain, residues 37–659, site A mutant; also called Sema1b‐mutA; Sema1b‐mutant A; source: HEK 293T, transient transfection, purified (HisTrap, SEC)
Take B2: the binding result in assay [2] is on record as “binds”.

B3: Sema1b‐mutB‐mRuby2 (ligand, Drosophila melanogaster, UniProt Q7KK54 37-686, looked up)
chain: DVKPDLQTKQDKVLAHFIGNSTDYFKILDHNDEFVLVGAKDVIYNVSLNGLKEIARLEWHSTDADRELCALKGKHEWDCHNYLRVYALRPNGEVLLCGTNSYKPRCRHYTPVEVSSEEAGSAGHAHAMRYEVSRDVEAQGLCPYSPAHNSTYAFADGHLYSATVADFSGGDPLIYRENLRTEQYDLKQLNQPDFVGAIERNGYVLFFFRELSMEVMNFGKAVYSRVARVCKNDRGGPYSHGKSWTSFLKARLNCSVPGEFPFYFDEIQAISPIVESGSKSLIYAVFTTSVNAIPGSAVCAFNVDDILAAFDGEAAAAAAAAAAAAAAAAAAVPKPRPGQCVEDSRTLTSIAVNFIKNHPLMEEAVPAVHGRPLLTKVNLHHRLTAIAVHPQVKSLSGAYYDVIYSGTDDGKVTKFINILSTHPNSTVDRLKTVVISEMQVLPLGTPIRELVISTSKNSLVVVSDGSLVSVPLHHCSHIVDCLGCLSLQDPICAWDLQTHECKNLATSQHKFGTKTYLQSLNSTKKAAALLCPHIPRDAPGAETVSFVTMAPPPTEEQKLLYSNVGSSQGNQPSLEQQPTGGDDFGLNKITLTSMDPDDIMPNLNDPQKSTASVDEIKYASTPSFMLLTTIVFFTFLVGGIAGICCVKAKS
notes: Semaphorin 1b (Sema1b), Drosophila melanogaster, residues 37–686, loop 350–367 replaced by alanines; source: COS-7, transiently transfected, on live cells; not shown: mRuby2, C-terminal, kept
With B3, in assay [4], the “average donor lifetime (τav)” value was 2.53 ± 0.04 ns and the “average fraction of the interacting donor (fD)” value (shortened to “average fraction”) came out at 0.21 ± 0.07.

B4: Sema1b‐mRuby2 (ligand, Drosophila melanogaster, UniProt Q7KK54 37-686, looked up)
chain: DVKPDLQTKQDKVLAHFIGNSTDYFKILDHNDEFVLVGAKDVIYNVSLNGLKEIARLEWHSTDADRELCALKGKHEWDCHNYLRVYALRPNGEVLLCGTNSYKPRCRHYTPVEVSSEEAGSAGHAHAMRYEVSRDVEAQGLCPYSPAHNSTYAFADGHLYSATVADFSGGDPLIYRENLRTEQYDLKQLNQPDFVGAIERNGYVLFFFRELSMEVMNFGKAVYSRVARVCKNDRGGPYSHGKSWTSFLKARLNCSVPGEFPFYFDEIQAISPIVESGSKSLIYAVFTTSVNAIPGSAVCAFNVDDILAAFDGEFKSQKDSQSHWLPVEREQVPKPRPGQCVEDSRTLTSIAVNFIKNHPLMEEAVPAVHGRPLLTKVNLHHRLTAIAVHPQVKSLSGAYYDVIYSGTDDGKVTKFINILSTHPNSTVDRLKTVVISEMQVLPLGTPIRELVISTSKNSLVVVSDGSLVSVPLHHCSHIVDCLGCLSLQDPICAWDLQTHECKNLATSQHKFGTKTYLQSLNSTKKAAALLCPHIPRDAPGAETVSFVTMAPPPTEEQKLLYSNVGSSQGNQPSLEQQPTGGDDFGLNKITLTSMDPDDIMPNLNDPQKSTASVDEIKYASTPSFMLLTTIVFFTFLVGGIAGICCVKAKS
notes: Semaphorin 1b (Sema1b), Drosophila melanogaster, residues 37–686: ectodomain followed by a transmembrane segment; also called wild‐type Sema1b‐mRuby2; source: COS-7, transiently transfected, on live cells; not shown: mRuby2, C-terminal, kept
Regarding B4, in assay [4], the “average donor lifetime (τav)” value was 2.51 ± 0.06 ns and the “average fraction” value is 0.26 ± 0.09.

B5: Sema1b‐mutA‐mRuby2 (ligand, Drosophila melanogaster, UniProt Q7KK54 37-686, looked up)
chain: B4 chain with F167E, Q183R, K187E
notes: Semaphorin 1b (Sema1b), Drosophila melanogaster, residues 37–686, site A mutant; source: COS-7, transiently transfected, on live cells; not shown: mRuby2, C-terminal, kept
Regarding B5, in assay [4], the “average donor lifetime (τav)” value is 2.43 ± 0.1 ns and the “average fraction” value came out at 0.37 ± 0.15.

B6: Sema1b_(ecto)‐mutB (domain or fragment, Drosophila melanogaster, UniProt Q7KK54 37-659, looked up)
chain: DVKPDLQTKQDKVLAHFIGNSTDYFKILDHNDEFVLVGAKDVIYNVSLNGLKEIARLEWHSTDADRELCALKGKHEWDCHNYLRVYALRPNGEVLLCGTNSYKPRCRHYTPVEVSSEEAGSAGHAHAMRYEVSRDVEAQGLCPYSPAHNSTYAFADGHLYSATVADFSGGDPLIYRENLRTEQYDLKQLNQPDFVGAIERNGYVLFFFRELSMEVMNFGKAVYSRVARVCKNDRGGPYSHGKSWTSFLKARLNCSVPGEFPFYFDEIQAISPIVESGSKSLIYAVFTTSVNAIPGSAVCAFNVDDILAAFDGEAAAAAAAAAAAAAAAAAAVPKPRPGQCVEDSRTLTSIAVNFIKNHPLMEEAVPAVHGRPLLTKVNLHHRLTAIAVHPQVKSLSGAYYDVIYSGTDDGKVTKFINILSTHPNSTVDRLKTVVISEMQVLPLGTPIRELVISTSKNSLVVVSDGSLVSVPLHHCSHIVDCLGCLSLQDPICAWDLQTHECKNLATSQHKFGTKTYLQSLNSTKKAAALLCPHIPRDAPGAETVSFVTMAPPPTEEQKLLYSNVGSSQGNQPSLEQQPTGGDDFGLNKITLTSMDPDDIMPNLNDPQKSTASVDEIKYASTPS
notes: Semaphorin 1b (Sema1b), Drosophila melanogaster, ectodomain, residues 37–659, Exβ1‐β2 loop 350–367 replaced by alanines; synthetic clone (Invitrogen-GeneArt); also called Sema1b‐mutB; Sema1b‐mutant B; source: HEK 293T, transient transfection, purified (HisTrap, SEC)
As to B6, the binding result in assay [2] is “binds”.

In general, stoichiometry N refers to the number of molecules, sites or subunits per partner or assembly. The Kd is the constant that tells how readily two partners part at equilibrium. The low end stands for a tighter complex, the high end for a looser complex.
